Measured values taken from publication PMC12049944.
One block for each substance: values may come before it.

Experiments:
Test in all cases: cross-linking; intermolecular disulfides between Cys residues introduced in helices 4 and 6 of APOA1 in rHDL; SDS-PAGE under reducing and oxidising conditions
[1] = target: APOA1 double Cys mutant M112C/M148C in rHDL (human)
[2] = target: APOA1 double Cys mutant Y115C/E147C in rHDL (human)
[3] = target: APOA1 double Cys mutant Y100C/M162C in rHDL (human)
[4] = target: APOA1 double Cys mutant K107C/H155C in rHDL (human)

percent dimer (oxidising conditions) [1]: 50%
Substance: APOA1 double Cys mutant M112C/M148C in rHDL

percent of APOA1 remaining monomeric (oxidising conditions) [2]: 10%
Substance: APOA1 double Cys mutant Y115C/E147C in rHDL

percent of APOA1 remaining monomeric (oxidising conditions) [3]: 10%
Substance: APOA1 double Cys mutant Y100C/M162C in rHDL (natural protein)

percent of APOA1 remaining monomeric (oxidising conditions) [4]: 10%
Substance: APOA1 double Cys mutant K107C/H155C in rHDL
